Measured values reported in patent publication US20240409635A1 (VIBRANT PHARMA, published 2024).

T1: recombinant human tumor antigen CEACAM-6 (ACRO systems, CE6-H5223) (human, UniProt P40199 35-320)
T1 construct: Bought
T1 sequence (looked up): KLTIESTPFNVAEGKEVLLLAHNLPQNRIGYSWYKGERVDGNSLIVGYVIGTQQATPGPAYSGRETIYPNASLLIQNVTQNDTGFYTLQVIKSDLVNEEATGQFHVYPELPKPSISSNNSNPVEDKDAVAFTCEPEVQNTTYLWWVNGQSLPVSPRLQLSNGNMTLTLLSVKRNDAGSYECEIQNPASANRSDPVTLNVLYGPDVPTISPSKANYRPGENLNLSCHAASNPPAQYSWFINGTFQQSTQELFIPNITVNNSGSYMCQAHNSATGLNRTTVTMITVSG


Key:
Assay in all cases: BLI, antibody on AHC sensor, antigen as analyte
[1] = target: T1, recombinant human tumor antigen …
[2] = target: T2, recombinant human tumor antigen HER2 (ERBB2, ACRO systems, HE2-H5212) (human, UniProt P04626 23-652)
T2 construct: Bought

[3] = target: T3, recombinant human protein CD3ε/δ (ACRO systems, CDD-H52W1) (human, UniProt P07766 23-126; P04234 22-105)
T3 construct: Bought heterodimer
T3 sequence (P07766 23-126, stated change not applied, chain 1 of 2): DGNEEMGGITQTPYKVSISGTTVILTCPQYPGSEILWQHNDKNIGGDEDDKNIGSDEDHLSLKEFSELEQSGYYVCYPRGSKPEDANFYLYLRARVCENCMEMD
T3 sequence (P04234 22-105, stated change not applied, chain 2 of 2): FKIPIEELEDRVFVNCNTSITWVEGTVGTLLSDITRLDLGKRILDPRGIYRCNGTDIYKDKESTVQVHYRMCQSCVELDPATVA

Binder | Kd [1] [nM] | koff [1] [s⁻¹] | kon [1] [M⁻¹ s⁻¹] | Kd [2] [nM] | koff [2] [s⁻¹] | kon [2] [M⁻¹ s⁻¹] | Kd [3] [nM] | koff [3] [s⁻¹] | kon [3] [M⁻¹ s⁻¹]
unilateral CD3/CEA-CAM6/HER2 trispecific antibody 701 (other) chain 1: EVKLLESGGGLVQPKGSLKLSCAASGFTFNTYAMNWVRQAPGKGLEWVARIRSKYNNYATYYADSVKDRFTISRDDSQSILYLQMNNLKTEDTAMYYCVRHGNFGNSYVSWFAYWGQGTLVTVSSASTKGPSVFPLAPCSRSTSESTAALGCLVKDYFPEPVTVSWNSGALTSGVHTFPAVLQSSGLYSLSSVVTVPSSSLGTKTYTCNVDHKPSNTKVDKRVESKYGPPCPPCPAPEAAGGPSVFLFPPKPKDTLMISRTPEVTCVVVDVSQEDPEVQFNWYVDGVEVHNAKTKPREEQFNSTYRVVSVLTVLHQDWLNGKEYKCKVSNKGLPSSIEKTISKAKGQPREPQVYTLPPCQEEMTKNQVSLWCLVKGFYPSDIAVEWESNGQPENNYKTTPPVLDSDGSFFLYSRLTVDKSRWQEGNVFSCSVMHEALHNHYTQKSLSLSL chain 2: QVQLVQSGGGLVQAGGSLRLSCAASGRTFSSYAMAWFRQAPGKEREFVAAISWSGANIYVADSVKGRFTISRDNAKDTVYLQMNSLKPEDTAVYYCAVKLGFAPVEERQYDYWGQGTQVTVSSESKYGPPCPPCPAPEAAGGPSVFLFPPKPKDTLMISRTPEVTCVVVDVSQEDPEVQFNWYVDGVEVHNAKTKPREEQFNSTYRVVSVLTVLHQDWLNGKEYKCKVSNKGLPSSIEKTISKAKGQPREPQVCTLPPSQEEMTKNQVSLSCAVKGFYPSDIAVEWESNGQPENNYKTTPPVLDSDGSFFLVSRLTVDKSRWQEGNVFSCSVMHEALHNRFTQKSLSLSL chain 3: QAVVTQESALTTSPGETVTLTCRSSTGAVTTSNYANWVQEKPDHLFTGLIGGTNKRAPGVPARFSGSLIGDKAALTITGAQTEDEAIYFCALWYSNLWVFGGGTKVEIKRTVAAPSVFIFPPSDEQLKSGTASVVCLLNNFYPREAKVQWKVDNALQSGNSQESVTEQDSKDSTYSLSSTLTLSKADYEKHKVYACEVTHQGLSSPVTKSFNRGECGGGGSGGGGSQVKLEESGGGLVQAGGSLRLSCRTSGRTNSVYTMGWFRQAPGKEREFVAQIMWGAGTNTHYADSVKGRFTISRDSAESTVYLQMNSLKPEDTAVYYCAANRGIPIAGRQYDYWGQGTQVTVSS | 13.3 | 0.00297 | 223000 | 37.5 | 0.00693 | 185000 | 1.3 | 0.000402 | 309000
unilateral CD3/CEA-CAM6/HER2 trispecific antibody 703 (other) chain 1: EVKLLESGGGLVQPKGSLKLSCAASGFTFNTYAMNWVRQAPGKGLEWVARIRSKYNNYATYYADSVKDRFTISRDDSQSILYLQMNNLKTEDTAMYYCVRHGNFGNSYVSWFAYWGQGTLVTVSSASTKGPSVFPLAPCSRSTSESTAALGCLVKDYFPEPVTVSWNSGALTSGVHTFPAVLQSSGLYSLSSVVTVPSSSLGTKTYTCNVDHKPSNTKVDKRVESKYGPPCPPCPAPEAAGGPSVFLFPPKPKDTLMISRTPEVTCVVVDVSQEDPEVQFNWYVDGVEVHNAKTKPREEQFNSTYRVVSVLTVLHQDWLNGKEYKCKVSNKGLPSSIEKTISKAKGQPREPQVYTLPPCQEEMTKNQVSLWCLVKGFYPSDIAVEWESNGQPENNYKTTPPVLDSDGSFFLYSRLTVDKSRWQEGNVFSCSVMHEALHNHYTQKSLSLSL chain 2: QVQLVQSGGGLVQAGGSLRLSCAASGRTFSSYAMAWFRQAPGKEREFVAAISWSGANIYVADSVKGRFTISRDNAKDTVYLQMNSLKPEDTAVYYCAVKLGFAPVEERQYDYWGQGTQVTVSSESKYGPPCPPCPAPEAAGGPSVFLFPPKPKDTLMISRTPEVTCVVVDVSQEDPEVQFNWYVDGVEVHNAKTKPREEQFNSTYRVVSVLTVLHQDWLNGKEYKCKVSNKGLPSSIEKTISKAKGQPREPQVCTLPPSQEEMTKNQVSLSCAVKGFYPSDIAVEWESNGQPENNYKTTPPVLDSDGSFFLVSRLTVDKSRWQEGNVFSCSVMHEALHNRFTQKSLSLSL chain 3: QVKLEESGGGLVQAGGSLRLSCRTSGRTNSVYTMGWFRQAPGKEREFVAQIMWGAGTNTHYADSVKGRFTISRDSAESTVYLQMNSLKPEDTAVYYCAANRGIPIAGRQYDYWGQGTQVTVSSGGGGSGGGGSQAVVTQESALTTSPGETVTLTCRSSTGAVTTSNYANWVQEKPDHLFTGLIGGTNKRAPGVPARFSGSLIGDKAALTITGAQTEDEAIYFCALWYSNLWVFGGGTKVEIKRTVAAPSVFIFPPSDEQLKSGTASVVCLLNNFYPREAKVQWKVDNALQSGNSQESVTEQDSKDSTYSLSSTLTLSKADYEKHKVYACEVTHQGLSSPVTKSFNRGEC | 5.16 | 0.00187 | 363000 | 16.3 | 0.00356 | 218000 | 0.379 | 8.4e-05 | 222000
unilateral CD3/CEA-CAM6/HER2 trispecific antibody 709 (other) chain 1: EVKLLESGGGLVQPKGSLKLSCAASGFTFNTYAMNWVRQAPGKGLEWVARIRSKYNNYATYYADSVKDRFTISRDDSQSILYLQMNNLKTEDTAMYYCVRHGNFGNSYVSWFAYWGQGTLVTVSSASTKGPSVFPLAPCSRSTSESTAALGCLVKDYFPEPVTVSWNSGALTSGVHTFPAVLQSSGLYSLSSVVTVPSSSLGTKTYTCNVDHKPSNTKVDKRVESKYGPPCPPCPAPEAAGGPSVFLFPPKPKDTLMISRTPEVTCVVVDVSQEDPEVQFNWYVDGVEVHNAKTKPREEQFNSTYRVVSVLTVLHQDWLNGKEYKCKVSNKGLPSSIEKTISKAKGQPREPQVYTLPPCQEEMTKNQVSLWCLVKGFYPSDIAVEWESNGQPENNYKTTPPVLDSDGSFFLYSRLTVDKSRWQEGNVFSCSVMHEALHNHYTQKSLSLSL chain 2: QVKLEESGGGLVQAGGSLRLSCRTSGRTNSVYTMGWFRQAPGKEREFVAQIMWGAGTNTHYADSVKGRFTISRDSAESTVYLQMNSLKPEDTAVYYCAANRGIPIAGRQYDYWGQGTQVTVSSESKYGPPCPPCPAPEAAGGPSVFLFPPKPKDTLMISRTPEVTCVVVDVSQEDPEVQFNWYVDGVEVHNAKTKPREEQFNSTYRVVSVLTVLHQDWLNGKEYKCKVSNKGLPSSIEKTISKAKGQPREPQVCTLPPSQEEMTKNQVSLSCAVKGFYPSDIAVEWESNGQPENNYKTTPPVLDSDGSFFLVSRLTVDKSRWQEGNVFSCSVMHEALHNRFTQKSLSLSL chain 3: QVQLVQSGGGLVQAGGSLRLSCAASGRTFSSYAMAWFRQAPGKEREFVAAISWSGANIYVADSVKGRFTISRDNAKDTVYLQMNSLKPEDTAVYYCAVKLGFAPVEERQYDYWGQGTQVTVSSGGGGSGGGGSQAVVTQESALTTSPGETVTLTCRSSTGAVTTSNYANWVQEKPDHLFTGLIGGTNKRAPGVPARFSGSLIGDKAALTITGAQTEDEAIYFCALWYSNLWVFGGGTKVEIKRTVAAPSVFIFPPSDEQLKSGTASVVCLLNNFYPREAKVQWKVDNALQSGNSQESVTEQDSKDSTYSLSSTLTLSKADYEKHKVYACEVTHQGLSSPVTKSFNRGEC | 4.16 | 0.0018 | 433000 | 20.7 | 0.00455 | 219000 | 0.351 | 6.18e-05 | 176000
